Measurements reported in US20260184782A1 (TWIST BIOSCIENCE, published 2026).

T1: human TIGIT-Fc (human, UniProt Q495A1 22-141, limits assumed)
T1 construct: not shown: Fc; not described
T1 sequence (looked up): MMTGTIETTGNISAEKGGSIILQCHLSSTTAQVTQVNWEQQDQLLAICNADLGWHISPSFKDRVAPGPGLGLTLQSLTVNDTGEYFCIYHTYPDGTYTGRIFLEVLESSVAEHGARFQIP

T2: TIGIT on PBMCs (UniProt Q495A1 22-244, limits assumed)
T2 sequence (looked up): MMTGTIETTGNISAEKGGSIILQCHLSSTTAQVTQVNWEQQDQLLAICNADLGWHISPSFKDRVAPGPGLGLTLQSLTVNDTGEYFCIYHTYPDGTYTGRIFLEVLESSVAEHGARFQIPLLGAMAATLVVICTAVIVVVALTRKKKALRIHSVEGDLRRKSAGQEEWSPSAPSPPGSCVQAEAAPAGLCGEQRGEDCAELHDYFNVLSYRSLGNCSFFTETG

T3: TIGIT (UniProt Q495A1 22-141, limits assumed)
T3 construct: also called T cell immunoreceptor with Ig and ITIM domains; hTIGIT
T3 sequence (looked up): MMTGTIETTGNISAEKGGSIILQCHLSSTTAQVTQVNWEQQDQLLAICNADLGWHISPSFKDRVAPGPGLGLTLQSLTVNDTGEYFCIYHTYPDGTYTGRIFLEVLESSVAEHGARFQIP

T4: TIGIT (UniProt Q495A1 22-141, limits assumed)
T4 construct: construct not described; also called T cell immunoreceptor with Ig and ITIM domains
T4 sequence (looked up): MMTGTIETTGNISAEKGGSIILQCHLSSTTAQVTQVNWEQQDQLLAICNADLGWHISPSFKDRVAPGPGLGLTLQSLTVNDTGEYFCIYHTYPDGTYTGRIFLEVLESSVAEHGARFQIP

T5: TIGIT (T cell immunoreceptor with Ig and ITIM domains) (UniProt Q495A1 22-141, limits assumed)
T5 sequence (looked up): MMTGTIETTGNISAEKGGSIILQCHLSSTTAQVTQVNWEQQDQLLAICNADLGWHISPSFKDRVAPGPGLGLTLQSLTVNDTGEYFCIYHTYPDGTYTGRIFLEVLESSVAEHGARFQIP


Legend:
human TIGIT-Fc [1] = target: T1, human TIGIT-Fc; experiment: CD155 competition ELISA, single point
Experimental: (§1) TIGIT/CD155 inhibition of VHH-Fcs were assessed using an ELISA assay (Table 10B). Briefly, human TIGIT-Fc was coated on a plate & then incubated with VHH-Fcs and human CD155-biotin. Bound CD155-biotin was detected using a streptavidin-HRP conjugate visualized with TMB. Strong inhibitors from the single point screen were titrated to determine EC50 (Table 10C).

human TIGIT-Fc [2] = target: T1, human TIGIT-Fc; experiment: CD155 competition ELISA, titration
Experimental: as §1

TIGIT on PBMCs = target: T2, TIGIT on PBMCs; experiment: cell-based or functional assay
TIGIT [3] = target: T3, TIGIT; experiment: TIGIT:CD155 blockade assay, competitor CD155
TIGIT [4] = target: T3, TIGIT; experiment: SPR (Carterra)
TIGIT [5] = target: T4, TIGIT; experiment: Carterra SPR, VHH-Fc
[6] = target: T5, TIGIT (T cell immunoreceptor with Ig …); experiment: SPR (Carterra), VHH-Fc
Description: The Carterra SPR system was used to assess binding affinity and affinity distribution for VHH-Fc variants. […] Table 5A provides specific values for the VHH-Fc clones for ELISA, Protein A (mg/ml), and KD (nM). FIG. 7A and FIG. 7B depict TIGIT affinity distribution for the VHH libraries, over the 20-4000 affinity threshold (FIG. 7A; monovalent KD) and the 20-1000 affinity threshold (FIG. 7B; monovalent KD).

[7] = target: T5, TIGIT (T cell immunoreceptor with Ig …); experiment: ELISA, VHH-Fc clone on TIGIT

| Binder | OD (450 nm) (human TIGIT-Fc [1]) [OD] | EC50 (human TIGIT-Fc [2]) [nM] | T-cell activation EC50 (TIGIT on PBMCs) [nM] | IC50 (TIGIT [3]) [nM] | Kd (TIGIT [4]) [nM] | RU (TIGIT [4]) [RU] | koff (TIGIT [4]) [s⁻¹] | kon (TIGIT [4]) [M⁻¹ s⁻¹] | other results |
| --- | --- | --- | --- | --- | --- | --- | --- | --- | --- |
| TIGIT-SC24 (Fc fusion, VHH-Fc) VHH: EVQLVESGGGLVQPGGSLRLSCAASGFTFDRSWMGWFRQAPGKEREVVASITSGGSTYYADSVKGRFTISADNSKNTAYLQMNSLKPEDTAVYYCAADVWYGSTWRNWGQGTLVTVSS | 0.0781 | 0.423 | 7.53 | – | – | – | – | – | – |
| TIGIT-471-011 (antibody, V domains shown, Variable domains only) VH: EVQLLESGGGLVQPGGSLRLSCAASGFTFSNYGVSWVRQAPGKGLEWVSSIDWHGWVTYYADSVKGRFTISRDNSKNTLYLQMNSLRAEDTAVYYCVKNALRFDYWGQGTLVTVSS VL: DIQMTQSPSSLSASVGDRVTITCSASQDINKYLNWYQQKPGKAPKLLIYHTSRLQSGVPSRFSGSGSGTDFTLTISSLQPEDFATYYCQQVVWRPFTFGQGTKVEIK | – | – | – | 14.4 | 7290 | 1080 | 0.269 | 36900 | – |
| TIGIT-471-027 (antibody, V domains shown, Variable domains only) VH: EVQLLESGGGLVQPGGSLRLSCAASGFTFSNYGVSWVRQAPGKGLEWVSWISPHGALTYYADSVKGRFTISRDNSKNTLYLQMNSLKAEDTAVYYCAKGRRRFDYWGQGTLVTVSS VL: DIQMTQSPSSLSASVGDRVTITCRASQTISSYLNWYQQKPGKAPKLLIYENNNRPSGVPSRFSGSGSGTDFTLTISSLQPEDFATYYCQQSYIIPPTFGQGTNVEIK | – | – | – | 13.5 | 60 | 57.5 | 0.00926 | 154000 | – |
| TIGIT-SC58 (Fc fusion, VHH-Fc) VHH: EVQLVESGGGLVQPGGSLRLSCAASGFTLGYYVMGWFRQAPGKEREFVATINWSGTLTSYADSVKGRFTISADNSKNTAYLQMNSLKPEDTAVYYCARWVGPKYYFDYWGQGTLVTVSS | 0.0846 | 0.303 | 2.08 | – | – | – | – | – | – |
| TIGIT-471-035 (antibody, V domains shown, Variable domains only) VH: EVQLLESGGGLVQPGGSLRLSCAASGFTFNAYPMTWVRQAPGKGLEWVSAITGSGGSTYYADSVKGRFTISRDNSKNTLYLQMNSLRAEDTAVYYCARVWRNHLDYWGQGTLVTVSS VL: DIQMTQSPSSLSASVGDRVTITCSGDKLGHTYTSWYQQKPGKAPKLLIYRASTLASGVPSRFSGSGSGTDFTLTISSLQPEDFATYYCQQGYTLPWTFGQGTKVEIK | – | – | – | 3.2 | 395 | 93.7 | 0.0484 | 123000 | – |
| TIGIT-471-001 (antibody, V domains shown, Variable domains only) VH: EVQLLESGGGLVQPGGSLRLSCAASGFTFSNYGVSWVRQAPGKGLEWVGYINPSRGYTYYADSVKGRFTISRDNSKNTLYLQMNSLRAEDTAVYYCARSYGGGFDYWGQGTLVTVSS VL: DIQMTQSPSSLSASVGDRVTITCRASQTIERRLNWYQQKPGKAPKLLIYDASSLHTGVPSRFSGSGSGTDFTLTISSLQPEDFATYYCQQSYIIPPTFGQGTKVEIK | – | – | – | 9.6 | 61.3 | 175 | 0.022 | 359000 | – |
| TIGIT-471-038 (antibody, V domains shown, Variable domains only) VH: EVQLLESGGGLVQPGGSLRLSCAASGFTFSNYGVSWVRQAPGKGLEWVGYINPSRGYTYYADSVKGRFTISRDNSKNTLYLQMNSLRAEDTAVYYCARSYGGGFDYWGQGTLVTVSS VL: DIQMTQSPSSLSASVGDRVTITCRASQTIERRLNWYQQKPGKAPKLLIYDASSLHTGVSSRFSGSGSGTYFTLTISSLQAEDFATYYCQQSYIIPPTFGQGTKVEIK | – | – | – | 5.9 | 55.4 | 78 | 0.0122 | 221000 | – |
| TIGIT-471-048 (antibody, V domains shown, Variable domains only) VH: EVQLLESGGGLVQPGGSLRLSCAASGFTFSNYGVSWVRQAPGKGLEWVGYINPSRGYTYYADSVKGRFTISRDNSKNTLYLQMNSLRAEDTAVYYCARSYGGGFDYWGQGTLVTVSS VL: DIQMTQSPSSLSASVGDRVTITCGASQTIERRLNWYQQKPGKAPKLLIYDASSLHTGVPSRISGSGSGTDFTLTISSLQPEHFATYYCQQSYIIPPTFGQGTKVEIK | – | – | – | 9.8 | 51.4 | 122 | 0.0192 | 373000 | – |
| TIGIT-471-019 (antibody, V domains shown, Variable domains only) VH: EVQLLESGGGLVQPGGSLRLSCAASGFTFSNYGVSWVRQAHGKGLEWVVYINPSRGYTYYADSVKGRFSISRDNSKNTLYLQMNSLRAEDTAVYYCARSYGGGFDYWGQGTLVTVSS VL: DIQMTQSPSSLSASVGDRVTITCRASQTIERRLNWYQQKPGKAPKLLIYDASSLHTGVPSRFSGSGSGTDFTLTISSLQPEDFATYYCQQSYIIPPTFGQGTKVEIK | – | – | – | 13.6 | 164 | 156 | 0.0565 | 344000 | – |
| TIGIT-SC41 (Fc fusion, VHH-Fc) VHH: EVQLVESGGGLVQPGGSLRLSCAASGMTTIGPMGWFRQAPGKEREFVASIAWGDGNTYYADSVKGRFTISADNSKNTAYLQMNSLKPEDTAVYYCVRGGSRTLWGQGTLVTVSS | 0.0921 | 10 | 1.83 | – | – | – | – | – | – |
| TIGIT-29-01 VHH-Fc (Fc fusion, also called 29-1) EVQLVESGGGLVQAGGSLRLSCAASGRTFSNYAMGWFRQAPGKEREFVAAITWSGTRTDYADSVKGRFTISADNAKNTVYLQMNSLKPEDTAVYYCAAAAWTIYEYDYWGQGTQVTVSSGGGGSEPKSSDKTHTCPPCPAPELLGGPSVFLFPPKPKDTLMISRTPEVTCVVVDVSHEDPEVKFNWYVDGVEVHNAKTKPREEQYNSTYRVVSVLTVLHQDWLNGKEYKCKVSNKALPAPIEKTISKAKGQPREPQVYTLPPSREEMTKNQVSLTCLVKGFYPSDIAVEWESNGQPENNYKTTPPVLDSDGSFFLYSLTVDKSRWQQGNVFSCSVMHEALHNHYTQKSLSLSPG | – | – | – | – | – | – | – | – | Kd (TIGIT [5]): 68 nM; kon (TIGIT [5]): 1e+09 M⁻¹ s⁻¹ |
| TIGIT-29-01 (Fc fusion, VHH-Fc; also called 29-1) EVQLVESGGGLVQAGGSLRLSCAASGRTFSNYAMGWFRQAPGKEREFVAAITWSGTRTDYADSVKGRFTISADNAKNTVYLQMNSLKPEDTAVYYCAAAAWTIYEYDYWGQGTQVTVSSGGGGSEPKSSDKTHTCPPCPAPELLGGPSVFLFPPKPKDTLMISRTPEVTCVVVDVSHEDPEVKFNWYVDGVEVHNAKTKPREEQYNSTYRVVSVLTVLHQDWLNGKEYKCKVSNKALPAPIEKTISKAKGQPREPQVYTLPPSREEMTKNQVSLTCLVKGFYPSDIAVEWESNGQPENNYKTTPPVLDSDGSFFLYSLTVDKSRWQQGNVFSCSVMHEALHNHYTQKSLSLSPG | – | – | – | – | – | – | – | – | Kd [6]: 68 nM; ELISA [7]: 10.4 |
| TIGIT-SC97 (Fc fusion, VHH-Fc) VHH: EVQLVESGGGLVQPGGSLRLSCAASGTAASFNPMGWFRQAPGKEREFVAAISWSGGSTNYADSVKGRFTISADNSKNTAYLQMNSLKPEDTAVYYCVTYSAYDFRNAWGQGTLVTVSS | 0.111 | 0.971 | 7.11 | – | – | – | – | – | – |
| TIGIT-SC63 (Fc fusion, VHH-Fc) VHH: EVQLVESGGGLVQPGGSLRLSCAASGRAIGSYGMGWFRQAPGKEREFVATISVSGVYTYYADSVKGRFTISADNSKNTAYLQMNSLKPEDTAVYYCARATPGGVVPWGQGTLVTVSS | 0.0781 | 135 | 88.1 | – | – | – | – | – | – |
| Tiragolumab (antibody, V domains shown) VH: EVQLQQSGPGLVKPSQTLSLTCAISGDSVSSNSAAWNWIRQSPSRGLEWLGKTYYRFKWYSDYAVSVKGRITINPDTSKNQFSLQLNSVTPEDTAVFYCTRESTTYDLLAGPFDYWGQGTLVTVSS VL: not shown | 0.0858 | 0.57 | 13.5 | – | – | – | – | – | – |
